This passage reports Kd results from patent publication US20250163157A1 (Boehringer Ingelheim, published 2025).

The target in this assay is T1, recombinant CD277 (human, UniProt O00481 30-254, limits assumed).
T1 construct: It gives no isoform (BTN3A1, A2 or A3), construct limits or supplier; also called BTN3A; Butyrophilin 3 family member BTN3A
Put plainly: SPR (Biacore), recombinant CD277 amine-coupled to CM5 chip, antibody as analyte, 1:1 Langmuir fit. As to the method:
SPR assay was performed according to the state of the art. In short, recombinant CD277 was immobilized to the surface of a Biacore CM5 optical sensor chip by covalent EDC/NHS coupling following the Biacore amine coupling kit protocol. Antibody samples were applied as analytes in serial dilution allowing standardized comparison of all antibodies binding to the identical target molecule surface. Kinetic analysis data are based on 1:1 Langmuir curve fitting model and mean Langmuir on-rates, off-rates and KD values: see table 5.
(In general: SPR reads the build-up and loss of mass on a sensor chip optically.)

One may read the Kd as the equilibrium constant for the complex coming apart.

T1 sequence (O00481 30-254 limits assumed): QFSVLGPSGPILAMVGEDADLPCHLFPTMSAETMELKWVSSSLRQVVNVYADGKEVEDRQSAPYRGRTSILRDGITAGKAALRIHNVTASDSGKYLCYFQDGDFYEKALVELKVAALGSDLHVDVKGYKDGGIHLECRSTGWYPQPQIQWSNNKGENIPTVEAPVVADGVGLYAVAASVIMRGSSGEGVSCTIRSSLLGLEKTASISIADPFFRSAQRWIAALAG

B1: reference antibody (full-length bivalent, monospecific, agonistic anti-CD277 antibody; heavy chain of SEQ ID NO:94, light chain of SEQ ID NO:93) (antibody, human IgG1, kappa, L234A L235A, V domains shown)
VH: QVQLQQSGAELVKPGASVKLSCKASGYTFTRYYLYWVKQRPGQGLEWIGEINPNNGGTKFNEKFKSKATLTVDKSSRTTYIQLSSLTSEDSAVYYCSREDDYDGTPDAMDYWGQGTAVTVSS
VL: DIQMNQSPSSLSASLGDTITITCHASQNINLWLSWYQQRPGNIPKLLIYRASNLHTGVPSRFSGSGSATGFTLTISSLQPEDIATYYCQQGHSYPYTFGGGTKLDIKR
notes: also called parent antibody
For the molecule B1, the Kd came to 2.8 nM.

B2: Antibody 47 (anti-CD277; VL parent, VH CDR2 N185S, K190N) (antibody, V domains shown)
VH: QVQLQQSGAELVKPGASVKLSCKASGYTFTRYYLYWVKQRPGQGLEWIGEINPSNGGTNFNEKFKSKATLTVDKSSRTTYIQLSSLTSEDSAVYYCSREDDYDGTPDAMDYWGQGTAVTVSS
VL: DIQMNQSPSSLSASLGDTITITCHASQNINLWLSWYQQRPGNIPKLLIYRASNLHTGVPSRFSGSGSATGFTLTISSLQPEDIATYYCQQGHSYPYTFGGGTKLDIK
notes: also called EvB#47; EvB#23
In the case of B2, the Kd is 26.3 nM.

B3: Antibody 52 (anti-CD277; VL CDR1 L31V, VH CDR2 N185S, K190N) (antibody, V domains shown)
VH: QVQLQQSGAELVKPGASVKLSCKASGYTFTRYYLYWVKQRPGQGLEWIGEINPSNGGTNFNEKFKSKATLTVDKSSRTTYIQLSSLTSEDSAVYYCSREDDYDGTPDAMDYWGQGTAVTVSS
VL: DIQMNQSPSSLSASLGDTITITCHASQNINVWLSWYQQRPGNIPKLLIYRASNLHTGVPSRFSGSGSATGFTLTISSLQPEDIATYYCQQGHSYPYTFGGGTKLDIK
notes: Its constructs use human IgG1 with L234A/L235A and human kappa; also called EvB#52; EvB#29
In the case of B3, the Kd was 13.9 nM.
